Measured values from the DeepSol protein solubility set.

Assay: soluble on expression in E. coli; label from the status in PepcDB or PDB records

Sequence	soluble on expression in E. coli
MTTSSHGLEKAMELAKFSKSQKERAREILEAGLLEATYGHLAPSSNFVGGMCVGNVSPGGEPVNLNAKVTGYLPKIKEMAEKHGVAQYVGILAAQMMQESQGEGNDPMQAAEGHYGDLSSSCIGLKGSARIGCIKDPNISIEAGVQEFKDVLAKANGDIALALQSYNYGPGFISYALAKGGYSEETAIAFSREHAGENPAGCSDPNNFRTKVGACYGDFTYVSKILKYYKDLGCVTAGDGEWISDKGWKWPTKSGRITDTFDAVRNGKQHNAVDIGAMTAGKPGDPVWSMEAGVVTAQTGYVNYGGLGVYIDHGNGIVSRYLHLSKISVTPGTMVTKGQIIGEMGGSNYVGGVLNMLGYAVHLDFQIRINDQPTDPMKFFKKNDDPGLSSGGSPTMTNAKRQKVLEEAKKWLGQGKVRYVLGDRNPPGGTSDCSGFTQYVFRTSIGVQLGDWTGAQVGQGKQVPDINHAQPGDLIFYENPGHVAIYMGNQKMIHIGDNKGVQITGLNYTARGQHMTQIRNVID	not soluble
MTTTPYDIIGKEALYDMIDYFYTLVEKDERLNHLFPGDFAETSRKQKQFLTQFLGGPNIYTEEHGHPMLRKRHMDFTITEFERDAWLENMQTAINRAAFPQGVGDYLFERLRLTANHMVNS	not soluble
MTTVLYYLPASPPCRSVLLLAKMIGVELDLKVLNIMEGEQLKPDFVELNPQHCIPTMDDHGLVLWESRVILSYLVSAYGKDENLYPKDFRSRAIVDQRLHFDLGTLYQRVVDYYFPTIHLGAHLDQTKKAKLAEALGWFEAMLKQYQWSAANHFTIADIALCVTVSQIEAFQFDLHPYPRVRAWLLKCKDELEGHGYKEINETGAETLAGLFRSKLKQ	soluble
MTVEHSEAPMTETDVVIIGAGHNGLTCAAYLAMAGLRVRVVERRKVVGGAAVTEEFHPGFRNSVAAYTVSLLNPQVIRDLGLAEQGLRIVERRAQNFLPAPDGSYLLTGEGRTKASVARLSAHDADALDGFSRELEDIADVLRQFVLRAPPNLLDGFGTNAIREAVNALQSANILRGLTLEQSRSLLDLFTRSAGEMLDERFEHDLVKALFGFDAIVGNYASPYAAGSAYVMLHHAFGEVNGKKGVWGHAIGGMGAITQAMARAAQGRGVAIDTDAGVREVIVERDRAVGVVLENGATIRAKYVAANVNPKLLYTRLIAADALPKDFLARIRHWKNGSGTFRMNVALDRLPSFTALPDDGDHLTSGIILAPSLGYMDRAFLDARAHGWSREPVVEMLIPSTLDDTLAPEGKHVASLFCQHVAPELPDSRSWDDHRDEVADLMIATVDSYAPGFASSVLGRQILSPLDLERQFGLLGGDIFHGALTLNQLFSARPMLGHADYRGPLKGLYHCGSGAHPGGGVTGAPGHNAAQAILRDHRSLFGSRGLEHHHHHH	not soluble
MTVELCGRWDARDVAGGRYRVINNVWGAETAQCIEVGLETGNFTITRADHDNGNNVAAYPAIYFGCHWGACTSNSGLPRRVQELSDVRTSWTLTPITTGRWNAAYDIWFSPVTNSGNGYSGGAELMIWLNWNGGVMPGGSRVATVELAGATWEVWYADWDWNYIAYRRTTPTTSVSELDLKAFIDDAVARGYIRPEWYLHAVETGFELWEGGAGLRSADFSVTVQKLAAALEIKRASQPELAPEDPEDVEHHHHHH	soluble
MTVIQKSSPTVKGVKTTTSDCTERRHSSSSPCKMSQNGSSGYYEGDVLLDDDALVSMPEATLIECFGNLAVTKRPAHLRPPAAFCLPFVSMNNDLTSGHALKHITLTSVFDALHPYVAMPYINRMDICSAMNVYWIRNCLEAEQSDLFHRFALEMQVHLSACFGCRVVLDIYGSTRNGFGTRFCDVDMSLSFSPSPPSWATNSDRVMRAVAKALVDFPKAVDERYVNAKVPIVRFRSSDMDMEADISYKNDLALHNTQLLQQYCKWDPERLPTLGVWVKAWAKRSGVGDASKGSLSSYAWIVMLIHYLQQVEPIPVLPCLQEMNHQKSENVYVQGYNTYYWKFVDTARTRRCRASVVDLFVGFLDYYATYFDYSTNVIQMVSKKLEFKPDRWCKYPMCIADPFETDHNLAQGVDMPMFEYIRSCMEHSKKVFTDRRMRSEFLSGYGFDVDEFDARHRGEMNMEMASQFGEFLLHKCIMVKQAPNRQFRDRSMSQSTSISNTSSISSSG	soluble
MTVKAMALNTNQLFAYLNRGDIAEFKFSPLFTTLFFPNVATFSTQNIMLDTLDIEEVTMSAFCSPMVGSQVQRDKGYETSTIKPGYMKPKHEIDPTKTIMRMAGEDPAQLNDPTYRRMRLITGNMRRQINAIKARVEWLAVNAVTTGKNIIEGEGIERYEIDWKIPEKNIIEQADGKKWSEQDKETHYPIYDIELYADQAGCPANVMIMGAEVWRTLRSFKKFRELYDLSRGSESAAELACKNLGEVVSFKGYLGDLALIVYSGKYTDSDGTEKYFLEPDLLVLGNTNNKGLVAYGAIMDQEAVRTGATQNMFYPKNWIEDGDPAIEYVQTHSAPQPVPADIRKFVTVKIA	soluble
